{"source": "patent US20210101970A1", "about": "(Pfizer, published 2021)", "binders": {"B1": {"name": "2C9 (reference antibody) (antibody, human IgG1, kappa, V domains shown)", "VH": "EVQLVESGGGLVKPGGSLRLSCAASGFTFSTNAMNWVRQAPGKGLERVARIRSKSNNYATYYADSVKDRFTISRDDSKNTLYLQMNSLKTEDTAVYYCVTMIPFAYWGQGTLVTVSS", "VL": "not shown", "notes": "fucosylated"}, "B2": {"name": "Chimeric 11G2 (antibody, human IgG1, kappa, V domains shown)", "VH": "EVKLVESGGGLVQPGGSLRLSCATSGFTFTDFYMSWVRQPPGRALEWLGFIRNKANGYTTEYSASVKGRFTISRDNSQSILYLQMNTLRAGDSATYYCVRVYGSTLHYWGQGTILTVSS", "VL": "DVVVTQSPDSLAVSLGQRATISCRASESVEYHGTSLMHWYQQKPGQPPKLLIYAASNVESGVPARFSGSGSGTDFSLNIHPVEEGDIAMYFCQQSRKVPWTFGGGTKLEIKR", "notes": "mouse V regions on human IgG1/kappa; also called 11G2 (chimeric)"}, "B3": {"name": "Afucosyl humanized 11G2 154/155 (antibody, human IgG1, kappa, V domains shown)", "VH": "EVQLVESGGGLVQPGGSLRLSCAASGFTFTDFYMSWVRQAPGKGLEWVGFIRNKANGYTTEYSASVKGRFTISRDNAKNSLYLQMNSLRAEDTAVYYCARVYGSTLHYWGQGTLVTVSS", "VL": "DIQMTQSPSSLSASVGDRVTITCRASESVEYHGTSLMHWYQQKPGKAPKLLIYAASNVESGVPSRFSGSGSGTDFTLTISSLQPEDFATYYCQQSRKVPWTFGQGTKVEIKR", "modifications": "afucosylated Fc glycan (Asn297)", "notes": "also called afucosyl h11G2 XC154/XC155; afucosylated h11G2 VL XC154/VH XC155"}}, "key": {"[1]": {"molecular_target": "T1, human CXCR5 (human, UniProt P32302 1-372)", "T1 sequence": "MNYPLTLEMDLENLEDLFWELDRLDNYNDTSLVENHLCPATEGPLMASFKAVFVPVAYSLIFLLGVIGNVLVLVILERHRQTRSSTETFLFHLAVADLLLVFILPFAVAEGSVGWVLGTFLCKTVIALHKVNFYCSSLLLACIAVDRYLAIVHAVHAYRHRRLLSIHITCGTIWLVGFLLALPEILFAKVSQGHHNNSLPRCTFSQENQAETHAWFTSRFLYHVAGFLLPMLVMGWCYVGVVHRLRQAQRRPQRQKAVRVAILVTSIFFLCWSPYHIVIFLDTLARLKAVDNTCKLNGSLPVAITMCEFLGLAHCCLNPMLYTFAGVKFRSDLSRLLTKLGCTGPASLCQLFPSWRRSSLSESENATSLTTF", "test": "cell-based or functional assay"}, "[2]": {"molecular_target": "T1, human CXCR5", "test": "flow cytometry on Raji cells, gMFI titration", "description": "The apparent affinity of antibody binding to Raji cells was calculated as the EC₅₀ of equilibrium binding titration curves in which the geometric mean fluorescence intensity (gMFI) of the antigen binding population was quantified by flow cytometry and the results are shown in Table 2."}, "[3]": {"molecular_target": "T1, human CXCR5", "test": "flow cytometry, B cells from human PBMCs (FIG. 5); comparator 2C9"}, "[4]": {"molecular_target": "T2, CXCR3 (human, UniProt P49682 1-368)", "T2 construct": "whole, on cells", "T2 sequence (looked up)": "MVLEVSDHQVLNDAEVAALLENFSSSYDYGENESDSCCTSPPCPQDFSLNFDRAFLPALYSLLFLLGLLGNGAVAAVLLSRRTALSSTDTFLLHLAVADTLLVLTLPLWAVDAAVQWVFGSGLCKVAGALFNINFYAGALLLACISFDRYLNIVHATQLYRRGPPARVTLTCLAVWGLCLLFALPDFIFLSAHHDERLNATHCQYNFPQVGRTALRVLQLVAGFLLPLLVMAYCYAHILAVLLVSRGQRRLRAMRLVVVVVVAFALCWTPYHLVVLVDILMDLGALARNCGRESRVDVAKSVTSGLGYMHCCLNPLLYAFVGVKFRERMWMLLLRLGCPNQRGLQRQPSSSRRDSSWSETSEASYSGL", "test": "flow cytometry (GMFI) on fixed CXCR3 cells, chimeric antibody, goat anti-human PE", "description": "To determine the specificity of the antibodies for CXCR5, the binding of the antibodies to cells expressing other […] was assessed. Briefly, FlowCellect chemokine receptor cell lines expressing CXCR1, CXCR2, or CXCR3 (EMD Millipore, Billerica, Mass.), and Jurkats (ATCC, Manassas, Va.), which express CXCR4, were stained with 5 μg/ml or 10 μg/ml of each anti-CXCR5 chimeric antibody. The cells were then incubated with goat anti-human conjugated with PE (Southern Biotech, Birmingham, Ala.) prior to analysis by flow cytometry using a FACSVerse Analyzer (BD Biosciences, Franklin Lakes, N.J.)."}, "[5]": {"molecular_target": "T1, human CXCR5", "test": "flow cytometry, B cells from human PBMCs (FIG. 5); afucosylated"}, "[6]": {"molecular_target": "T3, cynomolgus monkey CXCR5 (cynomolgus monkey, UniProt P32302 1-372 (human entry))", "T3 construct": "also called cynoCXCR5; NHP CXCR5", "T3 chain": "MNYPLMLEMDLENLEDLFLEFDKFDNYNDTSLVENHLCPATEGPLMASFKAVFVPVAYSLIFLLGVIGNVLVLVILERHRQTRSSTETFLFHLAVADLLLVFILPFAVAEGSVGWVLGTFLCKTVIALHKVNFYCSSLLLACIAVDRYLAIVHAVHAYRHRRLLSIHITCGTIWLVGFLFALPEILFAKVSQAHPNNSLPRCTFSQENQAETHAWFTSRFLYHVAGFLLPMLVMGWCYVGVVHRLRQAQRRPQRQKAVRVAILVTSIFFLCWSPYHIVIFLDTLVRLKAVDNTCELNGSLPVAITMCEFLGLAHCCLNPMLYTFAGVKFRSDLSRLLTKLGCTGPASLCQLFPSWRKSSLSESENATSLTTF", "test": "flow cytometry, cynomolgus PBMC Tfh-like cells", "description": "The apparent affinity for cell surface CXCR5 of chimeric and humanized CXCR5 fucosylated and afucosylated antibodies was assessed. More specifically, to determine the apparent affinity of chimeric and humanized CXCR5 antibodies to CXCR5-expressing cells, cell binding experiments were performed on human and cynomolgus monkey peripheral blood mononuclear cells (PBMCs) and human tonsillar mononuclear cells (TMCs). The apparent affinity of CXCR5 mab binding to CXCR5+ cells (B cells, bona fide Tfh cells, and circulating Tfh-like cells) was calculated as the EC50 of equilibrium binding titration curves in which the geometric mean fluorescence intensity (gMFI) of the antigen binding population was quantified by flow cytometry.\nFollowing isolation, PBMCs were plated at a density of 1.0×10⁵ cells per well and CD4+ TMCs were plated at a density of 2.0×10⁵ cells per well in isolation buffer (PBS containing 1% FBS and 1 mM EDTA) in 96 well U-bottom plates. The plates were then centrifuged at 1500 rpm for 5 minutes at room temperature. PBMCs and CD4+ TMCs were resuspended in Fluorescence-activated cell sorting (FACS) buffer (PBS containing 1% FBS) containing human crystallized fragment Fc block (2 μL per well; Biolegend) and 4-fold serial dilutions of the antibodies (11-point dilution series, beginning at 5000 ng/mL for PBMCs and 312.5 ng/mL for CD4+ TMCs) and incubated on ice for 2 hours. […]"}, "[7]": {"molecular_target": "T1, human CXCR5", "test": "flow cytometry, human PBMC B cells"}, "[8]": {"molecular_target": "T1, human CXCR5", "test": "cell-based or functional assay", "remark": "listed apart in the source"}}, "data": [{"binder": "B1", "values": [{"measurement": "% Inhibition CXCL13", "setting": "[1]", "value": 114, "unit": "%"}, {"measurement": "EC50, stimulation of CXCL13-inhibited cAMP production", "setting": "[1]", "value": 793, "unit": "pM"}, {"measurement": "EC50", "setting": "[2]", "value": 210, "unit": "pM"}, {"measurement": "EC50", "setting": "[3]", "value": 62.4, "unit": "pM"}]}, {"binder": "B2", "values": [{"measurement": "binding result", "setting": "[4]", "value": "no binding (tested: 5 or 10 µg/ml (not on the sheet))"}]}, {"binder": "B3", "values": [{"measurement": "EC50", "setting": "[5]", "value": 11.9, "unit": "pM"}, {"measurement": "EC50", "setting": "[6]", "value": 10.5, "unit": "pM"}, {"measurement": "fold higher affinity than 2C9", "setting": "[7]", "value": "~10", "unit": "fold"}, {"measurement": "fold higher affinity than 11A7", "setting": "[7]", "value": "~100", "unit": "fold"}, {"measurement": "EC50, functional antagonism (cAMP assay)", "setting": "[8]", "value": 961, "unit": "pM"}]}]}
